{"source": "paper PMC7119934", "about": "(Peptide Characterization and Application Protocols, 2007)", "proteins": {"B1": {"name": "HRN extended (902–950) (peptide)", "peptide": "QKQIANQFNKAISQIQESLTTTSTALGKLQDVVNQNAQALNTLVKQLSS"}}, "biological_target": "the molecule itself", "test": "SEC"}
{"protein": "B1", "values": [{"measurement": "stoichiometry N", "value": 3}]}
